What was measured:
[1] = molecular target: KIR2DL1 recombinant protein (entire extracellular domain, produced in E. coli, immobilized on Biacore chip) (human) (UniProt P43626); assay: SPR, KIR2DL1 chip; second Ab after first Ab 1-6 F1
[2] = molecular target: KIR2DL1 recombinant protein (entire extracellular domain, produced in E. coli, immobilized on Biacore chip) (human) (UniProt P43626); assay: SPR, KIR2DL1 chip; second Ab after first Ab 1-7 F9
[3] = molecular target: KIR2DL1 recombinant protein (entire extracellular domain, produced in E. coli, immobilized on Biacore chip) (human) (UniProt P43626); assay: SPR, KIR2DL1 chip; second Ab after first Ab EB6
[4] = molecular target: KIR2DL1 recombinant protein (entire extracellular domain, produced in E. coli, immobilized on Biacore chip) (human) (UniProt P43626); assay: SPR competition, KIR2DL1 chip; competitor (second Ab) 1-6 F1
[5] = molecular target: KIR2DL1 recombinant protein (entire extracellular domain, produced in E. coli, immobilized on Biacore chip) (human) (UniProt P43626); assay: SPR competition, KIR2DL1 chip; competitor (second Ab) DF200
[6] = molecular target: KIR2DL1 recombinant protein (entire extracellular domain, produced in E. coli, immobilized on Biacore chip) (human) (UniProt P43626); assay: SPR competition, KIR2DL1 chip; competitor (second Ab) 1-4 F1
[7] = molecular target: KIR2DL1 recombinant protein (entire extracellular domain, produced in E. coli, immobilized on Biacore chip) (human) (UniProt P43626); assay: SPR competition, KIR2DL1 chip; competitor (second Ab) Pan2D
[8] = molecular target: KIR2DL1 recombinant protein (entire extracellular domain, produced in E. coli, immobilized on Biacore chip) (human) (UniProt P43626); assay: SPR, KIR2DL1 chip; second Ab alone (field of first Ab 1-6 F1)
[9] = molecular target: KIR2DL1 recombinant protein (entire extracellular domain, produced in E. coli, immobilized on Biacore chip) (human) (UniProt P43626); assay: SPR, KIR2DL1 chip; second Ab alone (field of first Ab EB6)
[10] = molecular target: KIR2DL1 recombinant protein (entire extracellular domain, produced in E. coli, immobilized on Biacore chip) (human) (UniProt P43626); assay: SPR competition, KIR2DL1 chip; competitor (second Ab) 1-7 F9
[11] = molecular target: KIR2DL1 recombinant protein (entire extracellular domain, produced in E. coli, immobilized on Biacore chip) (human) (UniProt P43626); assay: SPR competition, KIR2DL1 chip; competitor (second Ab) EB6 (self)
[12] = molecular target: KIR2DL1 recombinant protein (entire extracellular domain, produced in E. coli, immobilized on Biacore chip) (human) (UniProt P43626); assay: SPR, KIR2DL1 chip; second Ab alone (field of first Ab 1-7 F9)
[13] = molecular target: KIR2DL3 recombinant protein (entire extracellular domain, produced in E. coli, immobilized on Biacore chip) (human) (UniProt P43628); assay: SPR, KIR2DL3 chip; second Ab after first Ab 1-7 F9
Chain of KIR2DL3 recombinant protein (entire extracellular domain, produced in E. coli, immobilized on Biacore chip) (human) (P43628 22-245): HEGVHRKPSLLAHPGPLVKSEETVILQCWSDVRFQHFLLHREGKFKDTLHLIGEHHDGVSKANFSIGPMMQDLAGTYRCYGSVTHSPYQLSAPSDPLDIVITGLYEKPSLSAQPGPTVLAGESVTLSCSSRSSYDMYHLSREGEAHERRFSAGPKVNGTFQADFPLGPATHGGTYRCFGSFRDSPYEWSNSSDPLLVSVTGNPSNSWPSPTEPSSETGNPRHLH

[14] = molecular target: KIR2DL3 recombinant protein (entire extracellular domain, produced in E. coli, immobilized on Biacore chip) (human) (UniProt P43628); assay: SPR, KIR2DL3 chip; second Ab after first Ab 1-6 F1
[15] = molecular target: KIR2DL3 recombinant protein (entire extracellular domain, produced in E. coli, immobilized on Biacore chip) (human) (UniProt P43628); assay: SPR, KIR2DL3 chip; second Ab alone (field of first Ab 1-6 F1)
[16] = molecular target: KIR2DL3 recombinant protein (entire extracellular domain, produced in E. coli, immobilized on Biacore chip) (human) (UniProt P43628); assay: SPR competition, KIR2DL3 chip; competitor (second Ab) 1-4 F1
[17] = molecular target: KIR2DL3 recombinant protein (entire extracellular domain, produced in E. coli, immobilized on Biacore chip) (human) (UniProt P43628); assay: SPR, KIR2DL3 chip; second Ab alone (field of first Ab 1-4 F1)
[18] = molecular target: KIR2DL3 recombinant protein (entire extracellular domain, produced in E. coli, immobilized on Biacore chip) (human) (UniProt P43628); assay: SPR competition, KIR2DL3 chip; competitor (second Ab) 1-6 F1
[19] = molecular target: KIR2DL3 recombinant protein (entire extracellular domain, produced in E. coli, immobilized on Biacore chip) (human) (UniProt P43628); assay: SPR competition, KIR2DL3 chip; competitor (second Ab) Pan2D
[20] = molecular target: KIR2DL3 recombinant protein (entire extracellular domain, produced in E. coli, immobilized on Biacore chip) (human) (UniProt P43628); assay: SPR competition, KIR2DL3 chip; competitor (second Ab) 1-7 F9
[21] = molecular target: KIR2DL3 recombinant protein (entire extracellular domain, produced in E. coli, immobilized on Biacore chip) (human) (UniProt P43628); assay: SPR, KIR2DL3 chip; second Ab after first Ab 1-4 F1
[22] = molecular target: KIR2DL3 recombinant protein (entire extracellular domain, produced in E. coli, immobilized on Biacore chip) (human) (UniProt P43628); assay: SPR competition, KIR2DL3 chip; competitor (second Ab) DF200
[23] = molecular target: KIR2DL3 recombinant protein (entire extracellular domain, produced in E. coli, immobilized on Biacore chip) (human) (UniProt P43628); assay: SPR, KIR2DL3 chip; second Ab alone (field of first Ab 1-7 F9)
[24] = molecular target: KIR2DL1 recombinant protein (entire extracellular domain, produced in E. coli, immobilized on Biacore chip) (human) (UniProt P43626); assay: SPR, KIR2DL1 chip; second Ab after first Ab 1-6 F5
immobilized KIR 2DS1 [25] = molecular target: immobilized KIR 2DS1 (UniProt Q14954); assay: SPR, KIR2DS1 chip; second Ab after first Ab 1-7 F9
Chain of immobilized KIR 2DS1 (Q14954 22-245 limits assumed): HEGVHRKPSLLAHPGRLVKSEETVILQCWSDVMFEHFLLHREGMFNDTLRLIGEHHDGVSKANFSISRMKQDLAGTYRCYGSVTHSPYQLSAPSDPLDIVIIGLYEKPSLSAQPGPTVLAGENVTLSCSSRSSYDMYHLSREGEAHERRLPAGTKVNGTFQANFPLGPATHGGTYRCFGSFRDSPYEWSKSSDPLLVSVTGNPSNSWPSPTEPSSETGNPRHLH

[26] = molecular target: KIR2DL1 recombinant protein (entire extracellular domain, produced in E. coli, immobilized on Biacore chip) (human) (UniProt P43626); assay: SPR, KIR2DL1 chip; second Ab alone (field of first Ab 1-6 F5)
[27] = molecular target: KIR2DL3 recombinant protein (entire extracellular domain, produced in E. coli, immobilized on Biacore chip) (human) (UniProt P43628); assay: SPR, KIR2DL3 chip; second Ab after first Ab 1-6 F5
[28] = molecular target: KIR2DL1 recombinant protein (entire extracellular domain, produced in E. coli, immobilized on Biacore chip) (human) (UniProt P43626); assay: SPR (Biacore), KIR2DL1 immobilized on CM5, soluble antibody 1x10^-7 to 4x10^-10 M
[29] = molecular target: KIR2DL3 recombinant protein (entire extracellular domain, produced in E. coli, immobilized on Biacore chip) (human) (UniProt P43628); assay: SPR competition, KIR2DL3 chip; competitor (second Ab) gl183
immobilized KIR 2DS1 [30] = molecular target: immobilized KIR 2DS1 (UniProt Q14954); assay: SPR competition, KIR2DS1 chip; competitor (second Ab) 1-4 F1
[31] = molecular target: KIR2DL3 recombinant protein (entire extracellular domain, produced in E. coli, immobilized on Biacore chip) (human) (UniProt P43628); assay: SPR, KIR2DL3 chip; second Ab alone (field of first Ab 1-6 F5)
[32] = molecular target: KIR2DL1(R131W)-hFc (human) (UniProt P43626); assay: ELISA, KIR2DL1(R131W)-hFc against KIR2DL1-hFc, mAb at 1 µg/ml
Chain of KIR2DL1(R131W)-hFc (human) (P43626 22-245 R152W): as the sequence (Q14954 22-245 limits assumed) above, with K70T, L90V, P114L, R131W, T154P, N163D, R182H, E216K counted along it

[33] = molecular target: KIR2DL1 recombinant protein (entire extracellular domain, produced in E. coli, immobilized on Biacore chip) (human) (UniProt P43626); assay: SPR competition, KIR2DL1 chip; competitor (second Ab) EB6
immobilized KIR 2DS1 [34] = molecular target: immobilized KIR 2DS1 (UniProt Q14954); assay: SPR, KIR2DS1 chip; second Ab alone (field of first Ab 1-7 F9)
[35] = molecular target: KIR2DL3 recombinant protein (entire extracellular domain, produced in E. coli, immobilized on Biacore chip) (human) (UniProt P43628); assay: SPR competition, KIR2DL3 chip; competitor (second Ab) 1-6 F5
[36] = molecular target: KIR2DL1 recombinant protein (entire extracellular domain, produced in E. coli, immobilized on Biacore chip) (human) (UniProt P43626); assay: SPR competition, KIR2DL1 chip; competitor (second Ab) 1-6 F5
[37] = molecular target: KIR2DL3 recombinant protein (entire extracellular domain, produced in E. coli, immobilized on Biacore chip) (human) (UniProt P43628); assay: SPR (Biacore), KIR2DL3 immobilized on CM5, soluble antibody 1x10^-7 to 4x10^-10 M
immobilized KIR 2DS1 [38] = molecular target: immobilized KIR 2DS1 (UniProt Q14954); assay: SPR competition, KIR2DS1 chip; competitor (second Ab) 1-7 F9
immobilized KIR 2DS1 [39] = molecular target: immobilized KIR 2DS1 (UniProt Q14954); assay: SPR competition, KIR2DS1 chip; competitor (second Ab) Pan2D
immobilized KIR 2DS1 [40] = molecular target: immobilized KIR 2DS1 (UniProt Q14954); assay: SPR competition, KIR2DS1 chip; competitor (second Ab) DF200

Chain of KIR2DL1 recombinant protein (entire extracellular domain, produced in E. coli, immobilized on Biacore chip) (human) (P43626 22-245): as the sequence (Q14954 22-245 limits assumed) above, with K70T, L90V, P114L, T154P, N163D, R182H, E216K counted along it

RU, second antibody with first antibody present [1] [RU] | RU, second antibody with first antibody present [2] [RU] | % inhibition of second antibody binding [4] [%] | % inhibition of second antibody binding [5] [%] | % inhibition of second antibody binding [6] [%] | % inhibition of second antibody binding [7] [%] | RU, direct binding of second antibody [8] [RU] | % inhibition of second antibody binding [10] [%] | RU, direct binding of second antibody [12] [RU] | RU, second antibody with first antibody present [13] [RU] | RU, second antibody with first antibody present [14] [RU] | RU, direct binding of second antibody [15] [RU] | % inhibition of second antibody binding [16] [%] | RU, direct binding of second antibody [17] [RU] | % inhibition of second antibody binding [18] [%] | % inhibition of second antibody binding [19] [%] | % inhibition of second antibody binding [20] [%] | RU, second antibody with first antibody present [21] [RU] | % inhibition of second antibody binding [22] [%] | RU, direct binding of second antibody [23] [RU] | Substance | further results
320 | 180 | 23 | 60 | 48 | 40 | 260 | 65 | 460 | – | – | – | – | – | – | – | – | – | – | – | EB6 (IgG1 anti KIR2DL1) (antibody) | RU, second antibody with first antibody present [3]: 200 RU; RU, direct binding of second antibody [9]: 460 RU; % inhibition of second antibody binding [11]: 57%
– | – | – | – | – | – | – | – | – | 200 | 570 | 620 | 75 | 1240 | 18 | 40 | 76 | 330 | 8 | 800 | GL183 (IgG1 anti KIR2DL3) (antibody) | –
310 | 545 | 15 | – | 92 | 80 | 350 | 27 | 600 | 450 | 760 | 790 | 75 | 1140 | 16 | 75 | 62 | 210 | – | 770 | monoclonal antibody DF200 produced by hybridoma DF200 | RU, second antibody with first antibody present [24]: 290 RU; RU, second antibody with first antibody present (immobilized KIR 2DS1 [25]): 1090 RU; RU, direct binding of second antibody [26]: 350 RU; RU, second antibody with first antibody present [27]: 760 RU; Kd [28]: 10.9 nM; % inhibition of second antibody binding [29]: 20%; % inhibition of second antibody binding (immobilized KIR 2DS1 [30]): 87%; RU, direct binding of second antibody [31]: 800 RU; reduction in binding compared to wild type [32]: 10%; % inhibition of second antibody binding [33]: 90%; RU, direct binding of second antibody (immobilized KIR 2DS1 [34]): 900 RU; % inhibition of second antibody binding [35]: 4%; % inhibition of second antibody binding [36]: 15%; Kd [37]: 2 nM; % inhibition of second antibody binding (immobilized KIR 2DS1 [38]): 15%; % inhibition of second antibody binding (immobilized KIR 2DS1 [39]): 70%
440 | 534 | 12 | 90 | 95 | – | 475 | 2 | 545 | 830 | 1090 | 990 | 68 | 2400 | 8 | – | 15 | 890 | 95 | 870 | monoclonal antibody NKVSF1 | RU, second antibody with first antibody present [24]: 440 RU; RU, second antibody with first antibody present (immobilized KIR 2DS1 [25]): 1200 RU; RU, direct binding of second antibody [26]: 475 RU; RU, second antibody with first antibody present [27]: 950 RU; % inhibition of second antibody binding (immobilized KIR 2DS1 [40]): 100%; % inhibition of second antibody binding [29]: 85%; % inhibition of second antibody binding (immobilized KIR 2DS1 [30]): 100%; RU, direct binding of second antibody [31]: 990 RU; reduction in binding compared to wild type [32]: 10%; % inhibition of second antibody binding [33]: 90%; RU, direct binding of second antibody (immobilized KIR 2DS1 [34]): 1350 RU; % inhibition of second antibody binding [35]: 18%; % inhibition of second antibody binding [36]: 13%; % inhibition of second antibody binding (immobilized KIR 2DS1 [38]): 45%

Reference: patent publication US20060280740A1
